These results are taken from the supplement of paper PMC7877785.

± gives the uncertainty stated by the source.

The nature of the series: self-splicing fitness, log relative to wild type (ln ratio); higher = more splicing; Tetrahymena group I intron in knt gene, E. coli kanamycin selection, DiMSum; sequences stand for … in CUCUCU…GGAGGGAAAAGUUAUCAGGCAUGCACCUGGUAGCUAGUCUUUAAACCAAUAGAUUGCAUCGGUUUAAAAGGCAAGACCGUCAAAUUGCGGGAAAGGGGUCAACAGCCGUUCAGUACCAAGUCUCAGGGGAAACUUUGAGAUGGCCUUGCAAAGGGUAUGGUAAUAAGCUGACGGACAUGGUCCUAACCACGCAGCCAAGUCCUAAGUCAACAGAUCUUCUGUUGAUAUGGAUGCAGUUCACAGACUAAAUGUCGGUCGGGGAAGAUGUAUUCUUCUCAUAAGAUAUAGUCGGACCUCUCCUUAAUGGGAGCUAGCGGAUGAAGUGAUGCAACACUGGAGCCGCUGGGAACUAAUUUGUAUGCGAAAGUAUAUUGAUUAGUUUUGGAGUACUCGUGGUCG
The method, boiled down: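 Fitness was computed with DiMSum as the error-weighted combination of replicate fold changes, kanamycin versus none, each normalised to wild type. The library randomised all eight intron nucleotides of the P1ex region, with the intron placed in the knt kanamycin-resistance gene on pET-22b(+) in E. coli BL21(DE3). Six replicate transformations were grown overnight at 37°C or 30°C on LB agar with or without 25 μg/mL kanamycin, plus 100 μg/mL carbenicillin, 50 μM IPTG and 0.2% rhamnose. Pooled colonies were amplicon-sequenced on an Illumina HiSeq 2500.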

With ACGCAGCAAUAUUACGAGUC, the “self-splicing fitness (ln)” value was -4.93 ± 0.27 (30 °C) and -2.26 ± 0.18 (37 °C).
The like results for UCUAAGCAAUAUUACGAGGC were, in that order, -2.85 ± 0.31 and -2.58 ± 0.38.
As for UAUAAGCAAUAUUACGUACU, the “self-splicing fitness (ln)” value was -1.69 ± 0.16 (30 °C) and -0.993 ± 0.11 (37 °C).
On the same counts, the results for UGGUAGCAAUAUUACGCGAG are -1.29 ± 0.17 and -2.17 ± 0.24.
On to AGCCAGCAAUAUUACGCUGG, for which the “self-splicing fitness (ln)” value (30 °C) is -4.12 ± 0.26 and the “self-splicing fitness (ln)” value (37 °C) was -2.32 ± 0.26.
The like results for GUGCAGCAAUAUUACGGAUA were, in that order, -1.76 ± 0.15 and -1.79 ± 0.19.
With AAAGAGCAAUAUUACGUGCG, the “self-splicing fitness (ln)” value by setting is: (30 °C) -2.69 ± 0.12; (37 °C) -1.82 ± 0.13.
Take GAAGAGCAAUAUUACGCGUU: the “self-splicing fitness (ln)” value by setting is: (30 °C) -3.69 ± 0.33; (37 °C) -3.12 ± 0.28.
The like results for UGCGAGCAAUAUUACGAAAU were, in that order, -2.85 ± 0.18 and -2.65 ± 0.38.
Consider CGCUAGCAAUAUUACGAGCC, for which the “self-splicing fitness (ln)” value reads like this: (30 °C) -1.23 ± 0.2; (37 °C) -0.554 ± 0.17.
For GCUUAGCAAUAUUACGAGUU, the “self-splicing fitness (ln)” value by setting is: (30 °C) -1.62 ± 0.091; (37 °C) -0.362 ± 0.11.
As for CAUAAGCAAUAUUACGGGUG, the “self-splicing fitness (ln)” value is -2.3 ± 0.08 (30 °C) and -1.17 ± 0.078 (37 °C).
On the same counts, the results for GCUUAGCAAUAUUACGACAU are -1.26 ± 0.014 and -0.365 ± 0.033.
The like results for UAGUAGCAAUAUUACGGGAU were, in that order, -3.3 ± 0.23 and -1.97 ± 0.18.
On the same counts, the results for GCCAAGCAAUAUUACGACGA are -1.84 ± 0.15 and -1.02 ± 0.2.
Consider UGCCAGCAAUAUUACGUAAU, for which the “self-splicing fitness (ln)” value is -2.36 ± 0.14 (30 °C) and -2.16 ± 0.18 (37 °C).
The like results for ACAGAGCAAUAUUACGCUUG were, in that order, -1.62 ± 0.12 and -1.63 ± 0.17.
UAGGAGCAAUAUUACGGCUC: the “self-splicing fitness (ln)” value (30 °C) is -2.64 ± 0.24.
Consider AAGGAGCAAUAUUACGAGGC, for which the “self-splicing fitness (ln)” value is, setting by setting: (30 °C) -2.89 ± 0.17; (37 °C) -2.41 ± 0.44.
The like results for CCAAAGCAAUAUUACGGCAC were, in that order, -4.07 ± 0.24 and -2.89 ± 0.21.
On the same counts, the results for UAAGAGCAAUAUUACGUCUG are -1.54 ± 0.093 and -0.00255 ± 0.11.
In the case of GUUGAGCAAUAUUACGUAGA, for the setting “37 °C”, the “self-splicing fitness (ln)” value was -0.549 ± 0.24.
As to UAACAGCAAUAUUACGGCGG, the “self-splicing fitness (ln)” value (30 °C) is -0.643 ± 0.053 and the “self-splicing fitness (ln)” value (37 °C) is -0.105 ± 0.068.
On the same counts, the results for AUUUAGCAAUAUUACGGGGG are -2.97 ± 0.42 and -2.81 ± 0.47.
On the same counts, the results for GCAGAGCAAUAUUACGGUCC are -2.22 ± 0.29 and -2.05 ± 0.4.
In the case of CUGGAGCAAUAUUACGGUUC, the “self-splicing fitness (ln)” value (30 °C) was -2.68 ± 0.49.
For GCCGAGCAAUAUUACGCAAC, the “self-splicing fitness (ln)” value was -3.15 ± 0.29 (30 °C) and -2.07 ± 0.26 (37 °C).
As for ACCUAGCAAUAUUACGACCU, the “self-splicing fitness (ln)” value was -1.26 ± 0.1 (30 °C) and 0.455 ± 0.12 (37 °C).
Consider CACCAGCAAUAUUACGACGU, for which the “self-splicing fitness (ln)” value by setting is: (30 °C) -2.58 ± 0.096; (37 °C) -1.11 ± 0.099.
As for AGGGAGCAAUAUUACGCAGA, for the setting “37 °C”, the “self-splicing fitness (ln)” value was -3.27 ± 0.43.
For the sequence AUGUAGCAAUAUUACGCAGU, the “self-splicing fitness (ln)” value runs as follows: (30 °C) -2.49 ± 0.12; (37 °C) -1.29 ± 0.11.
The like results for AGCUAGCAAUAUUACGUCCG were, in that order, -1.65 ± 0.23 and -0.915 ± 0.21.
On the same counts, the results for CACCAGCAAUAUUACGUCGA are -1.89 ± 0.086 and -0.942 ± 0.088.
The like results for AGCAAGCAAUAUUACGCGGG were, in that order, -3.87 ± 0.21 and -3.71 ± 0.26.
Regarding UCAUAGCAAUAUUACGUGAU, the “self-splicing fitness (ln)” value (30 °C) is -3.82 ± 0.17 and the “self-splicing fitness (ln)” value (37 °C) was -2.62 ± 0.2.
On the same counts, the results for CGCGAGCAAUAUUACGACUA are -2.42 ± 0.23 and -2.64 ± 0.25.
For the sequence AUACAGCAAUAUUACGAAUG, the “self-splicing fitness (ln)” value reads like this: (30 °C) -2.16 ± 0.14; (37 °C) -2.7 ± 0.19.
On the same counts, the results for GACCAGCAAUAUUACGGAGC are -0.563 ± 0.077 and -0.0895 ± 0.11.
On the same counts, the results for GAUUAGCAAUAUUACGCUCA are -0.572 ± 0.12 and -0.182 ± 0.17.
For the sequence UGAGAGCAAUAUUACGCAAA, the “self-splicing fitness (ln)” value (37 °C) is -0.61 ± 0.36.
Turning to CAGAAGCAAUAUUACGCUGU, the “self-splicing fitness (ln)” value is -4.53 ± 0.37 (30 °C) and -2.83 ± 0.21 (37 °C).
Regarding UGCUAGCAAUAUUACGCCGG, the “self-splicing fitness (ln)” value by setting is: (30 °C) -0.985 ± 0.22; (37 °C) -1.88 ± 0.5.
On the same counts, the results for UUCUAGCAAUAUUACGCCGA are -0.96 ± 0.23 and 0.163 ± 0.25.
On the same counts, the results for AAAAAGCAAUAUUACGGUUC are -2.7 ± 0.18 and -1.81 ± 0.21.
On the same counts, the results for UUUCAGCAAUAUUACGCUUC are -0.771 ± 0.21 and -2.33 ± 0.38.
For the sequence UAAGAGCAAUAUUACGCGCC, the “self-splicing fitness (ln)” value (37 °C) is -1.6 ± 0.38.
As for AGGUAGCAAUAUUACGAUUA, the “self-splicing fitness (ln)” value (30 °C) was -0.677 ± 0.016 and the “self-splicing fitness (ln)” value (37 °C) is -0.383 ± 0.033.
Consider CGGAAGCAAUAUUACGGGCG, for which the “self-splicing fitness (ln)” value runs as follows: (30 °C) -0.796 ± 0.091; (37 °C) -0.481 ± 0.12.
The like results for CGUGAGCAAUAUUACGGGCA were, in that order, -1.6 ± 0.12 and -1.63 ± 0.16.
On the same counts, the results for GAUGAGCAAUAUUACGACCU are -1.4 ± 0.18 and -1.36 ± 0.16.
On the same counts, the results for GGUGAGCAAUAUUACGAGCG are -0.194 ± 0.11 and 0.303 ± 0.14.
On to UGACAGCAAUAUUACGGAGG, for which the “self-splicing fitness (ln)” value was -4.41 ± 0.29 (30 °C) and -3.93 ± 0.21 (37 °C).
On the same counts, the results for ACCAAGCAAUAUUACGAGCU are -1.62 ± 0.056 and -0.791 ± 0.072.
On the same counts, the results for GCCCAGCAAUAUUACGACCG are -2.84 ± 0.18 and -1.55 ± 0.21.
Take CAUGAGCAAUAUUACGUAUU: the “self-splicing fitness (ln)” value is, setting by setting: (30 °C) -3.86 ± 0.46; (37 °C) -0.455 ± 0.16.
On the same counts, the results for CCCAAGCAAUAUUACGAGAU are -2.91 ± 0.14 and -3.31 ± 0.21.
For GGGCAGCAAUAUUACGAUUC, the “self-splicing fitness (ln)” value is, setting by setting: (30 °C) -0.524 ± 0.17; (37 °C) 0.155 ± 0.15.
On the same counts, the results for CUUGAGCAAUAUUACGUUGG are -2.66 ± 0.28 and -0.601 ± 0.18.
Take UCAUAGCAAUAUUACGUGGC: the “self-splicing fitness (ln)” value (37 °C) was -2.73 ± 0.43.
UGUCAGCAAUAUUACGUCUG: the “self-splicing fitness (ln)” value reads like this: (30 °C) -0.693 ± 0.1; (37 °C) -0.104 ± 0.11.
The like results for AGCAAGCAAUAUUACGCAAG were, in that order, -2.4 ± 0.2 and -2.11 ± 0.26.
As for CUAUAGCAAUAUUACGAGUU, the “self-splicing fitness (ln)” value is -3.04 ± 0.16 (30 °C) and -0.864 ± 0.18 (37 °C).
For UCGCAGCAAUAUUACGCGCA, the “self-splicing fitness (ln)” value (30 °C) was -0.382 ± 0.091 and the “self-splicing fitness (ln)” value (37 °C) was -0.601 ± 0.078.
Turning to UUCUAGCAAUAUUACGGGAA, the “self-splicing fitness (ln)” value is -2.38 ± 0.19 (30 °C) and -2.8 ± 0.28 (37 °C).
Turning to CCAUAGCAAUAUUACGUCGA, the “self-splicing fitness (ln)” value was -3.03 ± 0.28 (30 °C) and -2.2 ± 0.27 (37 °C).
Take ACCAAGCAAUAUUACGUAGU: the “self-splicing fitness (ln)” value is -2.49 ± 0.078 (30 °C) and -1.75 ± 0.088 (37 °C).
Regarding GCAUAGCAAUAUUACGUGUA, the “self-splicing fitness (ln)” value (30 °C) is -2.43 ± 0.13 and the “self-splicing fitness (ln)” value (37 °C) is -0.881 ± 0.084.
On the same counts, the results for CAGUAGCAAUAUUACGAGAC are -3.08 ± 0.24 and -1.31 ± 0.28.
On the same counts, the results for CGCCAGCAAUAUUACGGGGC are -4 ± 0.19 and -2.55 ± 0.16.
For AUCAAGCAAUAUUACGGUAG, the “self-splicing fitness (ln)” value (37 °C) was -2.53 ± 0.39.
As for UCAGAGCAAUAUUACGCAAC, the “self-splicing fitness (ln)” value (30 °C) is -3.8 ± 0.48 and the “self-splicing fitness (ln)” value (37 °C) is -1.91 ± 0.29.
On the same counts, the results for GAAUAGCAAUAUUACGCGCC are -1.29 ± 0.24 and -1.32 ± 0.29.
For the sequence UAAGAGCAAUAUUACGUUGA, the “self-splicing fitness (ln)” value (37 °C) was -1.97 ± 0.19.
For the sequence GCACAGCAAUAUUACGAUAA, the “self-splicing fitness (ln)” value reads like this: (30 °C) -1.31 ± 0.07; (37 °C) -0.957 ± 0.096.
Regarding GAGUAGCAAUAUUACGUUAG, the “self-splicing fitness (ln)” value was -3.69 ± 0.37 (30 °C) and -2.96 ± 0.34 (37 °C).
The like results for UAUAAGCAAUAUUACGCGUA were, in that order, -1.84 ± 0.2 and -0.627 ± 0.17.
The like results for ACAUAGCAAUAUUACGUGCC were, in that order, -2.1 ± 0.15 and -0.986 ± 0.19.
The like results for GAGCAGCAAUAUUACGCUGU were, in that order, -3.32 ± 0.18 and -2.52 ± 0.19.
